# Test results taken from US20240252631A1, “METHODS OF USING ACTIVIN RECEPTOR TYPE II SIGNALING INHIBITORS” (Keros Therapeutics, Inc., priority 2021, published 2024).
# Positions count from the first letter of the chain named. Entries after “also recorded” stand apart in the source; their conditions may differ.
# B1: SEQ ID NO: 85: ActRIIA variant with substitution of alanine (A) for lysine (K) at X17 (protein)
# chain: GAILGRSETQECLFYNANWELERTNQTGVERCEGEKDKRLHCYATWRNISGSIEIVAKGCWLDDFNCYDRTDCVETEENPQVYFCCCEGNMCNEKFSYFPEMEVTQPTS
# B2: ActRIIA/B-mFc: SEQ ID NO: 69 fused to a mouse Fc domain by way of a linker (protein)
# chain: B1 chain with A57K
# modifications: left off: a dimerising Fc or GST
# B3: activin A: ActRII ligand of the TGF-β superfamily used to treat bone marrow cells ex vivo (protein, UniProt P08476 311-426, looked up)
# Inhibin beta A chain: GLECDGKVNICCKKQFFVSFKDIGWNDWIIAPSGYHANYCEGECPSHIAGTSGSSLSFHSTVINHYRMRGHSPFANLKSCCVPTKLRPMSMLYYDDGQNIIKKDIQNMIVEECGCS
# Experiments:
# ActRIIB = ActRIIB (Homo sapiens, UniProt Q13705); details: Townson et al., J. Biol. Chem. 287:27313, 2012; cited from earlier work
# C57BI/6 mice [1] = assay: ActRIIA/B-mFc in combination with ruxolitinib (ruxolitinib-induced anemia); assay type: in vivo, mouse
# Method: To examine whether treatment with ActRIIA/B-mFc can overcome ruxolitinib-induced anemia, a pharmacological assessment was conducted in mice. Ten- to twelve-week-old, female, C57BI/6 mice were dosed orally with either vehicle (n=10) or ruxolitinib at 90 mg/kg (n=20) or 120 mg/kg (n=20) twice daily. After 37 days of ruxolitinib therapy, blood was sampled via cheek bleed for hematological assessment. On Day 41, mice from each ruxolitinib dose were divided into two groups that received either TBS (vehicle) (n=10) or ActRIIA/B-mFc (7.5 mg/kg, n=10 per group), IP twice weekly for 14 days concomitant to continued ruxolitinib dosing. Hematological parameters were assessed in whole blood with the use of a Heska Element HT5 veterinary hematology analyzer.
# [2] = Activity in vivo of ActRIIA variant substituted at X17; details: substitution of alanine (A) for lysine (K) at X17
# [3] = system: Bone marrow cells from 11-week-old C57BI/6 mice; assay: Ex-vivo treatment of bone marrow cells, ploidy of megakaryocyte precursors by flow cytometry; assay type: cell-based, mouse; details: six days
# Method: Bone marrow cells from 11-week-old C57BI/6 mice were isolated and treated with Activin A ([…]), ActRIIA/B-mFc ([…]), or a combination of both for six days. Cells were harvested after six days and analyzed using flow cytometry (N=2).
# C57BI/6 mice [4] = assay: Effect of a single dose of ActRIIA/B-mFc on platelet numbers at day 37, 51 and 85; assay type: in vivo, mouse; details: single dose 10 mg/kg subcutaneous
# Method: Eleven-week-old C57BI/6 mice were given a single dose of either TBS (vehicle) or ActRIIA/B-mFc (10 mg/kg) via subcutaneous administration. Separate cohorts of mice from both dosing groups were sampled for whole blood at study day 37, 51 and 85, and platelet counts were determined using a veterinary hematology analyzer (Heska Element HT5).
# C57BI/6 male mice = assay: Effect of an anti-activin A antibody on platelet numbers 24 hours post-dose; assay type: in vivo, mouse; details: intraperitoneal, anti-activin A 5 mg/kg, ActRIIA/B-mFc 10 mg/kg, vs TBS
# Method: Ten-week-old C57BI/6 male mice were dosed with either TBS (vehicle), anti-activin A antibody (described in WO2008031061A2, 5 mg/kg), or ActRIIA/B-mFc (10 mg/kg) via intraperitoneal administration. Twenty-four hours post-dose whole blood was sampled, and platelet counts were determined using a veterinary hematology analyzer (Hematrue).
# [5] = system: mouse model of immune thrombocytopenia; assay: Platelet recovery following anti-GP1bα platelet depletion; assay type: in vivo
# Method: Twelve-week-old mice were treated with either anti-GP1bα (0.08 mg/kg, Efferet) or IgG control. At day 4 after treatment, the anti-GP1bα treated group was further divided to receive either vehicle or ActRIIA/B-mFc (7.5 mg/kg) treatment. Platelets were measured at indicated time points post anti-GP1bα dosing. At day 10 post-treatment, mice were euthanized and bone marrow cells were harvested. Bone marrow cells were fixed in ice-cold 100% ethanol and stained with Propidium lodide (PI) (200 μg/mL, Sigma-Aldrich) and anti-CD41 (FITC conjugated, Emfret Analytics) antibody in parallel with RNase treatment (2 mg/ml, Invitrogen). Samples were analyzed by flow cytometer (Cytoflex, Beckman coulter) and % CD41+ nucleated cells (PI+ cells) was measured.
# [6] = system: TPO^high model of myelofibrosis; assay: TPO^high model of myelofibrosis: platelets, red blood cell parameters, spleen weight, immune cells; assay type: in vivo, mouse
# Method: The TPO^high model of myelofibrosis induces a myelofibrotic-like pathology through elevated exposure to thrombopoietin, the native endocrine inducer of megakaryocyte progenitor proliferation and development. Seven-week-old C57BI/6 albino mice (B6(Cg)-Tyr, Jackson Laboratory) were teil-vein injected with 0.75 mg/kg thrombopoietin (TPO) expressing plasmid cloned into pLEV113 plasmid (Lake Pharma). The injection was done in hydrodynamic approach in which 100 ml/kg volume is injected in a short period of time (6-10 seconds). On day 3 after TPO injection mice were divided into 2 groups receiving either vehicle (TBS) or ActRIIA/B-mFc (7.5 mg/kg), twice weekly. Mice were sacrificed on day 14 after TPO injection. Hematological parameters were measured using the Heska Element HT5 veterinary hematology analyzer.
# C57BI/6 mice [7] = assay: Effect of ActRIIA/B-mFc on megakaryocyte maturation (CD41+ cells and ploidy by flow cytometry); assay type: in vivo, mouse; details: 10 mg/kg, bone marrow
# Method: Eleven-week-old C57BI/6 mice were dosed with either TBS (Vehicle) or ActRIIA/B-mFc (10 mg/kg) via IP administration. Twelve and twenty-four hour later mice were euthanized and bone marrow extracted from the femurs. Bone marrow cells were fixed in ethanol following by a staining with Propidium lodide (PI) and anti CD41 (FITC, Efferet) antibody in parallel with RNAse treatment. Samples were analyzed by flow cytometer (Cytoflex, Beckman coulter). Ploidy of CD41+ nucleated cells (PI+ cells) was analyzed. Graphs represent % cells at each ploidy stage. For 12HR N=3 and for 24HR N=2. For CD41+ cells at 12HR time point a t-test was performed for statistical analysis. Data are presented as mean±SEM.
# C57BI/6 mice [8] = assay: Effect of ActRIIA/B-mFc on platelets and bone marrow megakaryocyte progenitors 12 hours post-dose; assay type: in vivo, mouse; details: single dose 10 mg/kg IP
# Method: Eleven-week-old C57BI/6 mice were dosed with either TBS (Vehicle) or ActRIIA/B-mFc (10 mg/kg) via intraperitoneal (IP) administration. Twelve hours post-dose whole blood was sampled, and platelet counts were determined using a veterinary hematology analyzer (Heska Element HT5). Mice were then euthanized, and bone marrow extracted from the femurs. Bone marrow cells were stained with antibodies against Lineage (Perc-Cy5), sca1 (BV525), cKit (Alexa750), CD41 (APC) and CD150 (Pcy7) and analyzed on flow cytometer (Cytoflex, Beckman coulter). Megakaryocyte progenitors were gated on Lin−; sca1−; ckit+; CD150+; CD41+ cells.
# [9] = ruxolitinib alone, 90 or 120 mg/kg orally twice daily, after 37 days
# [10] = 7.5 mg/kg twice weekly from day 3, day 14 after TPO injection
# [11] = 7.5 mg/kg IP twice weekly for 14 days, continued ruxolitinib
# Sequence of ActRIIB (Q13705 19-512, species assumed): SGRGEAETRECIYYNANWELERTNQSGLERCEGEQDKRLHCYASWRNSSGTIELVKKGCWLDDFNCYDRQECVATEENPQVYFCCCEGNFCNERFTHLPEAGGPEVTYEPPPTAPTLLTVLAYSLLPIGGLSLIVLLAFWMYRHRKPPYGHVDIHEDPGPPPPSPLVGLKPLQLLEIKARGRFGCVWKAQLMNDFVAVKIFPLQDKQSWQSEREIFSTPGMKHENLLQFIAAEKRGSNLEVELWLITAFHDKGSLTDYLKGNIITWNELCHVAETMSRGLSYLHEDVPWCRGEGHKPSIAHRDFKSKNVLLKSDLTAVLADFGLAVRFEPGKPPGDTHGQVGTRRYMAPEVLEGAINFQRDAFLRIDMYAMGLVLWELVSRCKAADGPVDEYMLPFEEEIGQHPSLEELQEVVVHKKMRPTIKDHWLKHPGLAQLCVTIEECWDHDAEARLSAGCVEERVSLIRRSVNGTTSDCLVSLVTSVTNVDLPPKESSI
molecule,measurement,setting,value
"BMP9: bone morphogenetic protein, ligand in the TGF-β superfamily",binding affinity for ActRIIB relative to ActRIIA,ActRIIB,about 300 fold
"N#CC[C@H](C1CCCC1)n1cc(-c2ncnc3[nH]ccc23)cn1 [ruxolitinib, reference compound]",RBC volume,C57BI/6 mice [1]; [9],reduced
same,hematocrit,C57BI/6 mice [1]; [9],reduced
same,hemoglobin,C57BI/6 mice [1]; [9],reduced
B1,activity in vivo,[2],reduced activity
B2,activin-mediated changes in megakaryocyte precursors (ploidy),[3]; ActRIIA/B-mFc (10 mg/kg) with Activin A (5 mg/kg),reversed
same,duration of increased circulating platelets after a single dose,C57BI/6 mice [4],at least 85 days
same,circulating platelets,"C57BI/6 mice [4]; day 37, 51 and 85",increased
same,platelets in wild-type mice,C57BI/6 male mice,increased
same,recovery of platelet numbers following platelet depletion,"[5]; 7.5 mg/kg at day 4 after anti-GP1bα (0.08 mg/kg), compared to vehicle treated mice",accelerated recovery
same,increase in the number of CD41+ megakaryocyte progenitors in the bone marrow compared to the vehicle-treated group,"[5]; 7.5 mg/kg, day 10 after platelet depletion",25%
same,4N ploidy level,"[5]; 7.5 mg/kg, day 10 after platelet depletion, vs vehicle",higher
same,"RBC metrics (red blood cells, hemoglobin, hematocrit, mean corpuscular hemoglobin concentration)",[6]; [10],significant improvement
same,TPO-mediated increase in lymphocytes,[6]; [10],reduced
same,TPO-mediated increase in white blood cells,[6]; [10],reduced
same,development of anemia,[6]; [10],reduce
same,expansion of platelets,[6]; [10],significant attenuation; also recorded: attenuated
same,splenomegaly,[6]; [10],significant reduction
same,splenic extra medullary hematopoiesis,"[6]; inferred from splenomegaly, 7.5 mg/kg twice weekly, day 14",reduced
same,number of CD41+ megakaryocyte progenitors,C57BI/6 mice [7]; 12 hours after treatment,increase
same,number of polyploid megakaryocytes,C57BI/6 mice [7]; by 24 hours,increase
same,bone marrow megakaryocyte progenitors,"C57BI/6 mice [8]; Lin-, sca1-, ckit+, CD150+, CD41+ cells",increased
same,circulating platelet numbers,C57BI/6 mice [8]; vs TBS vehicle,increased
same,ruxolitinib-associated reduction in RBC volume,C57BI/6 mice [1]; [11],abrogated
same,ruxolitinib-associated reduction in hematocrit,C57BI/6 mice [1]; [11],abrogated
same,ruxolitinib-associated reduction in hemoglobin,C57BI/6 mice [1]; [11],abrogated
same,body weight in mice treated with ruxolitinib,C57BI/6 mice [1]; ActRIIA/B-mFc 7.5 mg/kg IP twice weekly for 14 days with ruxolitinib 90 or 120 mg/kg twice daily,increased
B3,2N ploidy levels,[3]; Activin A (5 mg/kg),increased
same,extent of polyploidy (higher ploidy levels),[3]; Activin A (5 mg/kg),reduced
